Laboratory results taken from paper PMC5183740.

Molecular target: SA-M2e (streptavidin core fused to three consecutive copies of M2e of A/PARIS/2590/2009 (H1N1)) (Streptomyces avidinii | influenza A virus A/PARIS/2590/2009 (H1N1))
Experiment: SDS-PAGE of unheated samples

## SA-M2e (streptavidin core fused to three consecutive copies of M2e of A/PARIS/2590/2009 (H1N1))
  stoichiometry N: 4
